# T1: human G-CSF receptor (human, UniProt Q99062 25-836)
# T1 sequence (looked up): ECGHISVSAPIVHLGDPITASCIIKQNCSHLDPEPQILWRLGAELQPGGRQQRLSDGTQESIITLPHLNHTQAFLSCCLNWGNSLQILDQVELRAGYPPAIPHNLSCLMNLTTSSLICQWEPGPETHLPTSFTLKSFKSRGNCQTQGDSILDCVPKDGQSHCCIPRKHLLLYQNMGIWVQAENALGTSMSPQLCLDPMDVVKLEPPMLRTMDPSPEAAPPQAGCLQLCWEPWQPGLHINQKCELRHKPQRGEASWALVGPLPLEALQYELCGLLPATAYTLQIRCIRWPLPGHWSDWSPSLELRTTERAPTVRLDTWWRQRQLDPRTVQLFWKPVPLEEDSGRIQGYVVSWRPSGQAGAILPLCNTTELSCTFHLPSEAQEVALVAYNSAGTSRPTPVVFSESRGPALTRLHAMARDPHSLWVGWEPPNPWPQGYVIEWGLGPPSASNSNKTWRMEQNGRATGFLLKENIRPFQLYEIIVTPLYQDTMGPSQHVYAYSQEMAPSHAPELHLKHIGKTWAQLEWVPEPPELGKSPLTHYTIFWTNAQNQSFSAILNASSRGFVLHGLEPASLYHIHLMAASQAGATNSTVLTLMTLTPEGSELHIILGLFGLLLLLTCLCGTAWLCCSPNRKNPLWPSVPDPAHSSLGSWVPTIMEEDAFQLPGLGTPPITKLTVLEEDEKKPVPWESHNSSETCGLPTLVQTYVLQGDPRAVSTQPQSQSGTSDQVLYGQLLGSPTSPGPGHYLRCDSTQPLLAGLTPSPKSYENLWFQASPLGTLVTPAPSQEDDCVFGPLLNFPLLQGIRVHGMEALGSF
# Biological target: T1, human G-CSF receptor
# Experiment: cell-based or functional assay
EC50 (% of hG-CSF) non-conjugated,EC50 (% of hG-CSF) conjugated to SPA-PEG 5000,Binder
10 % of hG-CSF,,"G-CSF variant K16/34/40R Q90K T105K Q120K, non-conjugated (ligand) TPLGPASSLPQSFLLRCLEQVRKIQGDGAALQERLCATYRLCHPEELVLLGHSLGIPWAPLSSCPSQALQLAGCLSQLHSGLFLYQGLLKALEGISPELGPTLDKLQLDVADFATTIWQKMEELGMAPALQPTQGAMPAFASAFQRRAGGVLVASHLQSFLEVSYRVLRHLAQP"
70 % of hG-CSF,,"G-CSF variant 34Q, non-conjugated (ligand) TPLGPASSLPQSFLLKCLEQVRKIQGDGAALQEQLCATYKLCHPEELVLLGHSLGIPWAPLSSCPSQALQLAGCLSQLHSGLFLYQGLLQALEGISPELGPTLDTLQLDVADFATTIWQQMEELGMAPALQPTQGAMPAFASAFQRRAGGVLVASHLQSFLEVSYRVLRHLAQP"
55 % of hG-CSF,,"G-CSF variant K16/34/40R Q90K T105K S159K, non-conjugated (ligand) TPLGPASSLPQSFLLRCLEQVRKIQGDGAALQERLCATYRLCHPEELVLLGHSLGIPWAPLSSCPSQALQLAGCLSQLHSGLFLYQGLLKALEGISPELGPTLDKLQLDVADFATTIWQQMEELGMAPALQPTQGAMPAFASAFQRRAGGVLVASHLQKFLEVSYRVLRHLAQP"
80 % of hG-CSF,,"G-CSF variant 34A, non-conjugated (ligand) TPLGPASSLPQSFLLKCLEQVRKIQGDGAALQEALCATYKLCHPEELVLLGHSLGIPWAPLSSCPSQALQLAGCLSQLHSGLFLYQGLLQALEGISPELGPTLDTLQLDVADFATTIWQQMEELGMAPALQPTQGAMPAFASAFQRRAGGVLVASHLQSFLEVSYRVLRHLAQP"
10 % of hG-CSF,,"G-CSF variant K16/34/40R T105K Q120K T133K, non-conjugated (ligand) TPLGPASSLPQSFLLRCLEQVRKIQGDGAALQERLCATYRLCHPEELVLLGHSLGIPWAPLSSCPSQALQLAGCLSQLHSGLFLYQGLLQALEGISPELGPTLDKLQLDVADFATTIWQKMEELGMAPALQPKQGAMPAFASAFQRRAGGVLVASHLQSFLEVSYRVLRHLAQP"
10 % of hG-CSF,,"G-CSF variant K16/34/40R Q120K T133K S142K, non-conjugated (ligand) TPLGPASSLPQSFLLRCLEQVRKIQGDGAALQERLCATYRLCHPEELVLLGHSLGIPWAPLSSCPSQALQLAGCLSQLHSGLFLYQGLLQALEGISPELGPTLDTLQLDVADFATTIWQKMEELGMAPALQPKQGAMPAFAKAFQRRAGGVLVASHLQSFLEVSYRVLRHLAQP"
,2 % of hG-CSF,"G-CSF variant K16/34/40R Q90K Q120K T133K conjugated to SPA-PEG 5000 (ligand, SPA-PEG 5000 conjugated to the available PEGylation sites) TPLGPASSLPQSFLLRCLEQVRKIQGDGAALQERLCATYRLCHPEELVLLGHSLGIPWAPLSSCPSQALQLAGCLSQLHSGLFLYQGLLKALEGISPELGPTLDTLQLDVADFATTIWQKMEELGMAPALQPKQGAMPAFASAFQRRAGGVLVASHLQSFLEVSYRVLRHLAQP"
,1 % of hG-CSF,"G-CSF variant 34Q conjugated to SPA-PEG 5000 (ligand, SPA-PEG 5000 conjugated to the available PEGylation sites) TPLGPASSLPQSFLLKCLEQVRKIQGDGAALQEQLCATYKLCHPEELVLLGHSLGIPWAPLSSCPSQALQLAGCLSQLHSGLFLYQGLLQALEGISPELGPTLDTLQLDVADFATTIWQQMEELGMAPALQPTQGAMPAFASAFQRRAGGVLVASHLQSFLEVSYRVLRHLAQP"
10 % of hG-CSF,,"G-CSF variant K16/34/40R Q90K T105K T133K, non-conjugated (ligand) TPLGPASSLPQSFLLRCLEQVRKIQGDGAALQERLCATYRLCHPEELVLLGHSLGIPWAPLSSCPSQALQLAGCLSQLHSGLFLYQGLLKALEGISPELGPTLDKLQLDVADFATTIWQQMEELGMAPALQPKQGAMPAFASAFQRRAGGVLVASHLQSFLEVSYRVLRHLAQP"
,0.1 % of hG-CSF,"G-CSF variant 23R conjugated to SPA-PEG 5000 (ligand, SPA-PEG 5000 conjugated to the available PEGylation sites) TPLGPASSLPQSFLLKCLEQVRRIQGDGAALQEKLCATYKLCHPEELVLLGHSLGIPWAPLSSCPSQALQLAGCLSQLHSGLFLYQGLLQALEGISPELGPTLDTLQLDVADFATTIWQQMEELGMAPALQPTQGAMPAFASAFQRRAGGVLVASHLQSFLEVSYRVLRHLAQP"
,1 % of hG-CSF,"G-CSF variant 34R conjugated to SPA-PEG 5000 (ligand, SPA-PEG 5000 conjugated to the available PEGylation sites) TPLGPASSLPQSFLLKCLEQVRKIQGDGAALQERLCATYKLCHPEELVLLGHSLGIPWAPLSSCPSQALQLAGCLSQLHSGLFLYQGLLQALEGISPELGPTLDTLQLDVADFATTIWQQMEELGMAPALQPTQGAMPAFASAFQRRAGGVLVASHLQSFLEVSYRVLRHLAQP"
100 % of hG-CSF,,"G-CSF variant 23R, non-conjugated (ligand) TPLGPASSLPQSFLLKCLEQVRRIQGDGAALQEKLCATYKLCHPEELVLLGHSLGIPWAPLSSCPSQALQLAGCLSQLHSGLFLYQGLLQALEGISPELGPTLDTLQLDVADFATTIWQQMEELGMAPALQPTQGAMPAFASAFQRRAGGVLVASHLQSFLEVSYRVLRHLAQP"
,2 % of hG-CSF,"G-CSF variant K16/34/40R Q90K T105K Q120K conjugated to SPA-PEG 5000 (ligand, SPA-PEG 5000 conjugated to the available PEGylation sites) TPLGPASSLPQSFLLRCLEQVRKIQGDGAALQERLCATYRLCHPEELVLLGHSLGIPWAPLSSCPSQALQLAGCLSQLHSGLFLYQGLLKALEGISPELGPTLDKLQLDVADFATTIWQKMEELGMAPALQPTQGAMPAFASAFQRRAGGVLVASHLQSFLEVSYRVLRHLAQP"
,5 % of hG-CSF,"G-CSF variant K16/34/40R Q90K T105K S159K conjugated to SPA-PEG 5000 (ligand, SPA-PEG 5000 conjugated to the available PEGylation sites) TPLGPASSLPQSFLLRCLEQVRKIQGDGAALQERLCATYRLCHPEELVLLGHSLGIPWAPLSSCPSQALQLAGCLSQLHSGLFLYQGLLKALEGISPELGPTLDKLQLDVADFATTIWQQMEELGMAPALQPTQGAMPAFASAFQRRAGGVLVASHLQKFLEVSYRVLRHLAQP"
,1 % of hG-CSF,"G-CSF variant K16/34/40R T105K Q120K T133K conjugated to SPA-PEG 5000 (ligand, SPA-PEG 5000 conjugated to the available PEGylation sites) TPLGPASSLPQSFLLRCLEQVRKIQGDGAALQERLCATYRLCHPEELVLLGHSLGIPWAPLSSCPSQALQLAGCLSQLHSGLFLYQGLLQALEGISPELGPTLDKLQLDVADFATTIWQKMEELGMAPALQPKQGAMPAFASAFQRRAGGVLVASHLQSFLEVSYRVLRHLAQP"
50 % of hG-CSF,,"G-CSF variant 40R, non-conjugated (ligand) TPLGPASSLPQSFLLKCLEQVRKIQGDGAALQEKLCATYRLCHPEELVLLGHSLGIPWAPLSSCPSQALQLAGCLSQLHSGLFLYQGLLQALEGISPELGPTLDTLQLDVADFATTIWQQMEELGMAPALQPTQGAMPAFASAFQRRAGGVLVASHLQSFLEVSYRVLRHLAQP"
,1 % of hG-CSF,"G-CSF variant 34A conjugated to SPA-PEG 5000 (ligand, SPA-PEG 5000 conjugated to the available PEGylation sites) TPLGPASSLPQSFLLKCLEQVRKIQGDGAALQEALCATYKLCHPEELVLLGHSLGIPWAPLSSCPSQALQLAGCLSQLHSGLFLYQGLLQALEGISPELGPTLDTLQLDVADFATTIWQQMEELGMAPALQPTQGAMPAFASAFQRRAGGVLVASHLQSFLEVSYRVLRHLAQP"
,1 % of hG-CSF,"G-CSF variant K16/34/40R Q120K T133K S142K conjugated to SPA-PEG 5000 (ligand, SPA-PEG 5000 conjugated to the available PEGylation sites) TPLGPASSLPQSFLLRCLEQVRKIQGDGAALQERLCATYRLCHPEELVLLGHSLGIPWAPLSSCPSQALQLAGCLSQLHSGLFLYQGLLQALEGISPELGPTLDTLQLDVADFATTIWQKMEELGMAPALQPKQGAMPAFAKAFQRRAGGVLVASHLQSFLEVSYRVLRHLAQP"
10 % of hG-CSF,,"G-CSF variant K16/34/40R Q90K Q120K S142K, non-conjugated (ligand) TPLGPASSLPQSFLLRCLEQVRKIQGDGAALQERLCATYRLCHPEELVLLGHSLGIPWAPLSSCPSQALQLAGCLSQLHSGLFLYQGLLKALEGISPELGPTLDTLQLDVADFATTIWQKMEELGMAPALQPTQGAMPAFAKAFQRRAGGVLVASHLQSFLEVSYRVLRHLAQP"
,2 % of hG-CSF,"G-CSF variant K16/34/40R Q90K T105K T133K conjugated to SPA-PEG 5000 (ligand, SPA-PEG 5000 conjugated to the available PEGylation sites) TPLGPASSLPQSFLLRCLEQVRKIQGDGAALQERLCATYRLCHPEELVLLGHSLGIPWAPLSSCPSQALQLAGCLSQLHSGLFLYQGLLKALEGISPELGPTLDKLQLDVADFATTIWQQMEELGMAPALQPKQGAMPAFASAFQRRAGGVLVASHLQSFLEVSYRVLRHLAQP"
100 % of hG-CSF,,"G-CSF variant 34R, non-conjugated (ligand) TPLGPASSLPQSFLLKCLEQVRKIQGDGAALQERLCATYKLCHPEELVLLGHSLGIPWAPLSSCPSQALQLAGCLSQLHSGLFLYQGLLQALEGISPELGPTLDTLQLDVADFATTIWQQMEELGMAPALQPTQGAMPAFASAFQRRAGGVLVASHLQSFLEVSYRVLRHLAQP"
15 % of hG-CSF,,"G-CSF variant K16/34/40R Q90K Q120K T133K, non-conjugated (ligand) TPLGPASSLPQSFLLRCLEQVRKIQGDGAALQERLCATYRLCHPEELVLLGHSLGIPWAPLSSCPSQALQLAGCLSQLHSGLFLYQGLLKALEGISPELGPTLDTLQLDVADFATTIWQKMEELGMAPALQPKQGAMPAFASAFQRRAGGVLVASHLQSFLEVSYRVLRHLAQP"
,1 % of hG-CSF,"G-CSF variant K16/34/40R Q90K Q120K S142K conjugated to SPA-PEG 5000 (ligand, SPA-PEG 5000 conjugated to the available PEGylation sites) TPLGPASSLPQSFLLRCLEQVRKIQGDGAALQERLCATYRLCHPEELVLLGHSLGIPWAPLSSCPSQALQLAGCLSQLHSGLFLYQGLLKALEGISPELGPTLDTLQLDVADFATTIWQKMEELGMAPALQPTQGAMPAFAKAFQRRAGGVLVASHLQSFLEVSYRVLRHLAQP"
